Read-outs that look alike come from different tables or passages of the source.
Experiments:
[1] = target: RSV CA protein (Rous sarcoma virus); experiment: cryo-EM structure; single-particle cryo-EM of T = 1 and T = 3 icosahedral CLPs; 500 µM CA assembled in 1 M NaPO4 at pH 8, diluted 1:4
[2] = target: RSV CA protein (Rous sarcoma virus); experiment: as above; remark: listed apart in the source
[3] = target: RSV CASPNC (Rous sarcoma virus); experiment: cryo-EM structure; cryo-electron tomography and subtomogram averaging of CASPNC CLPs (regular tubes and polyhedrons) assembled in the presence of 100 µM IP6
[4] = target: RSV CASPNC (Rous sarcoma virus); experiment: as above; remark: listed apart in the source

Substance | stoichiometry N [1] | stoichiometry N [2] | stoichiometry N [3] | stoichiometry N [4]
RSV CA protein (natural protein) | 6 | 5 | – | –
RSV CASPNC (domain or fragment) | – | – | 6 | 5

— article PMC8163826
